{
  "source": "patent US20110081659",
  "proteins": {"B1": {"name": "GSK3α (Carna) (protein)", "chain": "MSGGGPSGGGPGGSGRARTSSFAEPGGGGGGGGGGPGGSASGPGGTGGGKASVGAMGGGVGASSSGGGPGGSGGGGSGGPGAGTSFPPPGVKLGRDSGKVTTVVATLGQGPERSQEVAYTDIKVIGNGSFGVVYQARLAETRELVAIKKVLQDKRFKNRELQIMRKLDHCNIVRLRYFFYSSGEKKDELYLNLVLEYVPETVYRVARHFTKAKLTIPILYVKVYMYQLFRSLAYIHSQGVCHRDIKPQNLLVDPDTAVLKLCDFGSAKQLVRGEPNVSYICSRYYRAPELIFGATDYTSSIDVWSAGCVLAELLLGQPIFPGDSGVDQLVEIIKVLGTPTREQIREMNPNYTEFKFPQIKAHPWTKVFKSRTPPEAIALCSSLLEYTPSSRLSPLEACAHSFFDELRCLGTQLPNNRPLPPLFNFSAGELSIQPSLNAILIPPHLRSPAGTTTLTPSSQALTETPTSSDWQSTDATPTLTNSS"}},
  "target": "T1, ULight-labeled 4E-BP1 fragment peptide GSK3 substrate (non-primed)",
  "T1 chain": "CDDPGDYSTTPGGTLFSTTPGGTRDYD",
  "data": [
    {"protein": "B1", "values": [
      {"measurement": "S/B, LANCE Ultra kinase assay, 20 nM enzyme, n = 1", "value": 35.7},
      {"measurement": "S/B, LANCE Ultra kinase assay, 20 nM enzyme, n = 2", "value": 33.2}
    ]}
  ]
}
